The values that follow come from patent publication US20070218064A1 (published 2007).

First the molecules themselves.
T1: IL-12 (R&D) (UniProt P29459 23-219; P29460 23-328)
T1 construct: bought from R&D Systems; also called R&D IL-12
T1 sequence (looked up) 1: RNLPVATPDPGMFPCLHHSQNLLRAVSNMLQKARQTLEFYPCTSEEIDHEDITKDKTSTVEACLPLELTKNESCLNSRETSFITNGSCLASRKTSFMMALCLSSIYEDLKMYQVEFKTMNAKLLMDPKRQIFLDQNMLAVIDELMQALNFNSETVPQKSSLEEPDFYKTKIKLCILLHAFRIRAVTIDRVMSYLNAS
T1 sequence (looked up) 2: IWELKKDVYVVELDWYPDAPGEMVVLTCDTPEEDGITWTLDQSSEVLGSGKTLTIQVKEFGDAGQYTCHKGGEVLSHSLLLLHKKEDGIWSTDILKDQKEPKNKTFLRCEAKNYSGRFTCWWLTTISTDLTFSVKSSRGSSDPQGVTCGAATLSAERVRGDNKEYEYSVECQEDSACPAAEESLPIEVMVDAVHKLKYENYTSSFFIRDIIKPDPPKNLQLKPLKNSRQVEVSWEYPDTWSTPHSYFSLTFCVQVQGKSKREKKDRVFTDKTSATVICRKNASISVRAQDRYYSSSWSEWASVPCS

T2: recombinant human IL-12 (hrIL-12), produced at Centocor (human, UniProt P29459 23-219; P29460 23-328)
T2 construct: p35-p40 heterodimer; also called hIL-12; IL-12 CNTO
T2 sequence (looked up) 1: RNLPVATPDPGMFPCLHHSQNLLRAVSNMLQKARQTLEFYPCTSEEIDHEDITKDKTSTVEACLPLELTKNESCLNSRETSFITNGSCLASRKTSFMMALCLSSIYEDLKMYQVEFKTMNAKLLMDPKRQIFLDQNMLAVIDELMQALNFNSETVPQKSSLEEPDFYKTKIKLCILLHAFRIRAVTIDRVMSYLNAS
T2 sequence (looked up) 2: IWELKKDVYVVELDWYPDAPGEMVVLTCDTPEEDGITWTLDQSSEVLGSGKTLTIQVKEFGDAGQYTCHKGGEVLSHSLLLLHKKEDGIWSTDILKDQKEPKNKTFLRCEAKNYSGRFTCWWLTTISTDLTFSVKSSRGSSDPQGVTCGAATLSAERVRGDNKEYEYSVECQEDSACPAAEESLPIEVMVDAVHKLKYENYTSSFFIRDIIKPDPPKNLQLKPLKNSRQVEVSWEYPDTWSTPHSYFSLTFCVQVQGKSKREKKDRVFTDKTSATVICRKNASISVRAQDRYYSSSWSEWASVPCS

T3: recombinant human IL-23 (hrIL-23), produced at Centocor (human, UniProt P29460 23-328)
T3 sequence 1: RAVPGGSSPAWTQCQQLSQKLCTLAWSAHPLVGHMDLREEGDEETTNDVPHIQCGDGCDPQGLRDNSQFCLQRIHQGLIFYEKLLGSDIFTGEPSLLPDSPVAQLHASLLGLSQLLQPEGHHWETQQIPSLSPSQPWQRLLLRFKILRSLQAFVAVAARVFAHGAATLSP
T3 sequence 2: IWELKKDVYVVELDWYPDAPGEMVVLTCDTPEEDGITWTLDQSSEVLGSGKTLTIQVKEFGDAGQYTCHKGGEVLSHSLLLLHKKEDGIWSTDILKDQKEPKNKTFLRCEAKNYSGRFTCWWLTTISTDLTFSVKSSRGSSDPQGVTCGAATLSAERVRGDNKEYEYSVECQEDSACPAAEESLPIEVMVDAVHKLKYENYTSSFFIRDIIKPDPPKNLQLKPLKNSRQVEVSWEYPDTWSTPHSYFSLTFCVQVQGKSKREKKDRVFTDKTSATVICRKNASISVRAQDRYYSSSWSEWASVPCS

B1: Fab MOR04658 (Fab, V domains shown)
VH: QVQLVESGGGLVQPGGSLRLSCAASGFTFSSFGMSWVRQAPGKGLEWVSNISSSGSSTYYADSVKGRFTISRDNSKNTLYLQMNSLRAEDTAVYYCARYWGTPYLMQFDNWGQGTLVTVSS
VL: DIALTQPASVSGSPGQSITISCTGTSSDVGGYNSVSWYQQHPGKAPKLMIYSVSSRPSGVSNRFSGSKSGNTASLTISGLQAEDEADYYCSSYDTNKPLVVFGGGTKLTVL
notes: HuCAL Gold Fab, lambda
B2: Fab MOR04649 (Fab, V domains shown)
VH: QVQLVQSGAEVKKPGESLKISCKGSGYSFSNYWIGWVRQMPGKGLEWMGIIDPSNSYTNYSPSFQGQVTISADKSISTAYLQWSSLKASDTAMYYCARWYYKPFDVWGQGTLVTVSS
VL: DIVLTQPPSVSGAPGQRVTISCTGSSSNIGSGYDVHWYQQLPGTAPKLLIYGNSKRPSGVPDRFSGSKSGTSASLAITGLQSEDEADYYCSSWTPSSVVFGGGTKLTVL
notes: HuCAL Gold Fab, lambda
B3: mAb MOR05032 (antibody, IgG1, V domains shown)
VH: QVELVQSGAEVKKPGSSVKVSCKASGGTFSSNYISWVRQAPGQGLEWMGGIIPIFGHANYAQKFQGRVTITADESTSTAYMELSSLRSEDTAVYYCARSKKGMYGGWTYPLMMFDLWGQGTLVTVSS
VL: DIVLTQSPATLSLSPGERATLSCRASQSVSSNYLAWYQQKPGQAPRLLIYYASRRATGVPARFSGSGSGTDFTLTISSLEPEDFAYYCQQNPFTFGQGTKVEIK
B4: mAb MOR05031 (antibody, IgG1, V domains shown)
VH: QVELVQSGAEVKKPGSSVKVSCKASGGTFSSNYISWVRQAPGQGLEWMGGIIPIFGHANYAQKFQGRVTITADESTSTAYMELSSLRSEDTAVYYCARSKKGMYGGWTYPLMMFDLWGQGTLVTVSS
VL: DIVLTQSPATLSLSPGERATLSCRASQSVSSNYLAWYQQKPGQAPRLLIYYASRRATGVPARFSGSGSGTDFTLTISSLEPEDFAYYCQQTPFTFGQGTKVEIK
B5: mAb MOR05036 (antibody, IgG1, V domains shown)
VH: QVELVQSGAEVKKPGSSVKVSCKASGGTFSSNYISWVRQAPGQGLEWMGIPFGAYAQKFQGRVTITADESTSTAYMELSSLRSEDTAVYYCARSKKGMYGGWTYPLMMFDLWGQGTLVTVSS
VL: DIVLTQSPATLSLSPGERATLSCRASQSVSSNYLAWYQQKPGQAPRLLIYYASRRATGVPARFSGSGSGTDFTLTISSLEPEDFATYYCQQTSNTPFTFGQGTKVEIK
B6: mAb MOR05033 (antibody, IgG1, V domains shown)
VH: QVELVQSGAEVKKPGSSVKVSCKASGGTFSSNYISWVRQAPGQGLEWMGIIPGAYAQKFQGRVTITADESTSTAYMELSSLRSEDTAVYYCARSKKGMYGGWTYPLMMFDLWGQGTLVTVSS
VL: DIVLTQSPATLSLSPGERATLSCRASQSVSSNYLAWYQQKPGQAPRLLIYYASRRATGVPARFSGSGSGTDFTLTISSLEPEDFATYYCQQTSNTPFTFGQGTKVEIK
B7: mAb MOR05034 (antibody, IgG1, V domains shown)
VH: QVELVQSGAEVKKPGSSVKVSCKASGGTFSSNYISWVRQAPGQGLEWMGIPFGAYAQKFQGRVTITADESTSTAYMELSSLRSEDTAVYYCARSKKGMYGGWTYPLMMFDLWGQGTLVTVSS
VL: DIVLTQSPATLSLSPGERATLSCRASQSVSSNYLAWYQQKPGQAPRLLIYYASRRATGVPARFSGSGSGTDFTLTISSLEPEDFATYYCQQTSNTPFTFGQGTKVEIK
B8: mAb MOR05037 (antibody, IgG1, V domains shown)
VH: QVELVQSGAEVKKPGSSVKVSCKASGGTFSSNYISWVRQAPGQGLEWMGIPFGAYAQKFQGRVTITADESTSTAYMELSSLRSEDTAVYYCARSKKGMYGGWTYPLMMFDLWGQGTLVTVSS
VL: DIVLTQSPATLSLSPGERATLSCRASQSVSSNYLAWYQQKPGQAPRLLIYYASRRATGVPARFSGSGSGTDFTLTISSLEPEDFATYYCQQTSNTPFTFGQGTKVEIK
B9: mAb MOR05028 (antibody, IgG1, V domains shown)
VH: QVELVQSGAEVKKPGSSVKVSCKASGGTFSNYAISWVRQAPGQGLEWMGGIIPFGYAQKFQGRVTITADESTSTAYMELSSLRSEDTAVYYCARDIYAGMDVWGQGTLVTVSS
VL: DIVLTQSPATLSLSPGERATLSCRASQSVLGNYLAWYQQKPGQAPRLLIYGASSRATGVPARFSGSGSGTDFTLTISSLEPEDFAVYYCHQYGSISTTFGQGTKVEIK
B10: mAb MOR05051 (antibody, IgG1, V domains shown)
VH: QVELVESGGGLVQPGGSLRLSCAASGFTFSSFGMSWVRQAPGKGLEWVSITYASVKGRFTISRDNSKNTLYLQMNSLRAEDTAVYYCARYWGTPYLMQFDNWGQGTLVTVSS
VL: DIALTQPASVSGSPGQSITISCTGTSSDVGGYNSVSWYQQHPGKAPKLMIYSVSSRPSGVSNRFSGSKSGNTASLTISGLQAEDEADYYCSSYDTNKPLVVFGGGTKLTVL
B11: mAb MOR05056 (antibody, IgG1, V domains shown)
VH: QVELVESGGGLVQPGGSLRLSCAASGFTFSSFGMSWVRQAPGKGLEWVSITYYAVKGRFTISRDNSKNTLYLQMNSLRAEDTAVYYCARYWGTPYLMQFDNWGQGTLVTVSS
VL: DIALTQPASVSGSPGQSITISCTGTSSDVGGYNSVSWYQQHPGKAPKLMIYSVSSRPSGVSNRFSGSKSGNTASLTISGLQAEDEADYYCSSYDTNKPLVVFGGGTKLTVL
B12: mAb MOR05055 (antibody, IgG1, V domains shown)
VH: QVELVESGGGLVQPGGSLRLSCAASGFTFSSFGMSWVRQAPGKGLEWVSNIGTYASVKGRFTISRDNSKNTLYLQMNSLRAEDTAVYYCARYWGTPYLMQFDNWGQGTLVTVSS
VL: DIALTQPASVSGSPGQSITISCTGTSSDVGGYNSVSWYQQHPGKAPKLMIYSVSSRPSGVSNRFSGSKSGNTASLTISGLQAEDEADYYCSSYDTNKPLVVFGGGTKLTVL
B13: mAb MOR05039 (antibody, IgG1, V domains shown)
VH: QVELVESGGGLVQPGGSLRLSCAASGFTFSSFGMSWVRQAPGKGLEWVSNITYYASVKGRFTISRDNSKNTLYLQMNSLRAEDTAVYYCARYWGTPYLMQFDNWGQGTLVTVSS
VL: DIALTQPASVSGSPGQSITISCTGTSSDVGGYNSVSWYQQHPGKAPKLMIYSVSSRPSGVSNRFSGSKSGNTASLTISGLQAEDEADYYCSSYDTNKPLVVFGGGTKLTVL
B14: mAb MOR05063 (antibody, IgG1, V domains shown)
VH: QVELVESGGGLVQPGGSLRLSCAASGFTFSSFGMSWVRQAPGKGLEWVSNISSSGSSTYYADSVKGRFTISRDNSKNTLYLQMNSLRAEDTAVYYCARYWGTPYLMQFDNWGQGTLVTVSS
VL: DIALTQPASVSGSPGQSITISCTGTSSDVGGYNSVSWYQQHPGKAPKLMIYSVSSRPSGVSNRFSGSKSGNTASLTISGLQAEDEADYYCSDVFGGGTKLTVL
B15: mAb MOR05062 (antibody, IgG1, V domains shown)
VH: QVELVESGGGLVQPGGSLRLSCAASGFTFSSFGMSWVRQAPGKGLEWVSNISSSGSSTYYADSVKGRFTISRDNSKNTLYLQMNSLRAEDTAVYYCARYWGTPYLMQFDNWGQGTLVTVSS
VL: DIALTQPASVSGSPGQSITISCTGTSSDVGGYNSVSWYQQHPGKAPKLMIYSVSSRPSGVSNRFSGSKSGNTASLTISGLQAEDEADYYCYVFGGGTKLTVL
B16: mAb MOR05061 (antibody, IgG1, V domains shown)
VH: QVELVESGGGLVQPGGSLRLSCAASGFTFSSFGMSWVRQAPGKGLEWVSNISSSGSSTYYADSVKGRFTISRDNSKNTLYLQMNSLRAEDTAVYYCARYWGTPYLMQFDNWGQGTLVTVSS
VL: DIALTQPASVSGSPGQSITISCTGTSSDVGGYNSVSWYQQHPGKAPKLMIYSVSSRPSGVSNRFSGSKSGNTASLTISGLQAEDEADYYCSSYVFGGGTKLTVL
B17: Fab MOR05046 (Fab, V domains shown)
VH: QVQLVQSGAEVKKPGESLKISCKGSGYSFSNYWIGWVRQMPGKGLEWMGIIDPVSSWTKYSPSFQGQVTISADKSISTAYLQWSSLKASDTAMYYCARWYYKPFDVWGQGTLVTVSS
VL: DIVLTQPPSVSGAPGQRVTISCTGSSSNIGSGYDVHWYQQLPGTAPKLLIYGNSKRPSGVPDRFSGSKSGTSASLAITGLQSEDEADYYCSSWTPSSVVFGGGTKLTVL
notes: H-CDR2 matured from 4649

What is called IC50 is the point on the concentration scale where inhibition reaches its midpoint.

One assay addresses T1, IL-12 (R&D). Put plainly: ELISA, antigen in solution to immobilized Fab.
As to B1, the binding result was “no binding”.
Consider B2, for which the binding result was “no binding”.

Another assay has as its target T2, recombinant human IL-12 (hrIL-12), …. Briefly: ELISA, antigen in solution to immobilized Fab. (ELISA stands for enzyme-linked immunosorbent assay.)
As to B1, the binding result is on record as “no binding”.
Same read-out and setting: the entry for B2 is “no binding”.

A further assay addresses T3, recombinant human IL-23 (hrIL-23), …. Put plainly: cell-based or functional assay.
Consider B3, for which the “Inhibition of IL-17 production, IC50” value was determined as 0.172 µg/mL.
As for B4, the “Inhibition of IL-17 production, IC50” value is 0.215 µg/mL.
As to B5, the “Inhibition of IL-17 production, IC50” value came to 0.17 µg/mL.
Still for that read-out and setting: the figure for B6 is 0.283 µg/mL; for B7 it is 0.185 µg/mL.
The same measure, in the same setting: in the case of B8 it was 0.336 µg/mL.
Consider B9, for which the “Inhibition of IL-17 production, IC50” value was found to be 0.104 µg/mL.
The same measure, in the same setting: the figure for B10 is 0.0663 µg/mL.
On the same count and under the same terms, the figure for B11 is 0.092 µg/mL.
On the same count and under the same terms, in the case of B12 it was 0.0916 µg/mL; in that of B13, 0.161 µg/mL; in that of B14, 0.198 µg/mL.
Turning to B15, the “Inhibition of IL-17 production, IC50” value turned out to be 0.199 µg/mL.
The same measure, in the same setting: the figure for B16 is 0.309 µg/mL.

For a further assay the target is unchanged. Briefly: IL-23/IL-23R competition assay.
With B17, the 50% inhibitory concentration (IC50) stood at 0.03 nM.
